Assay results from US20070036810A1, “Cyclic amp response element activator proteins and uses related thereto” (priority 2003, published 2007).
Where two headings read alike, the source gives them in different places.

How the values were obtained:
[1] = test system: cAMP responsive genes in HeLa cells; conditions: vs pCMV-Sport6 vector
From the text: HeLa cells are transfected with CREAP1 as described herein or expression constructs containing relA, (Ruben S M et al., Science 1991 Mar. 22;251(5000):1490-3), MAP3K11 (Hartkamp, J. et al., (1999). Cancer Res. 59, 2195-2202) or ANKRD3 (Muto, A., et al., (2002) J. Biol. Chem. 277, 31871-31876.) using Targefect F1 transfection reagent (Targeting Systems, Santee, Calif.) according to the protocol supplied with the product. Briefly, HeLa cells are used for the transfection at 70-80% of confluency in T75 tissue culture flasks (Falcon). Transfection mixes are prepared as follows: to 50 ml conical tube (Falcon) with 8 ml of Opti-MEM I 20 μg of selected plasmid DNA is added and mixed by flicking the tube. Two transfections are set up with pCMV-Sport6 empty vector. Targefect F-1 stock solution is vortexed at full speed for 20 seconds and 40 μl are added to each tube, mixed again by flicking the tube and incubated at room temperature for 30 minutes to allow formation of transfection complexes. HeLa cells are washed twice with 20 ml of Opti-MEM I medium and […] of each transfection complex are added per 1 T75 flask. After 4 hrs of incubation at 37° C. 8 ml of growth media with serum is added to each flask. The media is replaced the next day. 56 hours post-transfection the media is replaced again and to one of the flasks transfected with pCMV-Sport6 plasmid TNFα (R&D Systems) is added at 50 ng/ml and the incubation is continued at 37° C. for the next 16 hours. 72 hours post-transfection cells are collected in 10 ml of TRIzol reagent (Gibco BRL) and frozen at −80° C. Total RNA is isolated according to the protocol supplied with the TRIzol reagent. Synthesis labeling of double-stranded cDNA probes, Affymetrix Gene-Chip hybridization and data analysis are done according to conventional methods (see also Eberwine, J., et al., J. Neurosci. 21, 8310-8314 and Hakak, Y., et al., (2001) Proc. Natl. Acad. Sci. U.S.A. 98, 4746-4751).
To determine if CREAP1 regulates expression of authentic CREB targets, cellular gene expression was measured using DNA microarrays after overexpression of CREAP1. Briefly, HeLa cells were transiently transfected with pCMV-Sport6, CREAP1 using Targefect F1 reagent (Targeting Systems). One half of pCMV-Sport6 transfected cells were left untreated and was used as a negative control. Total RNA isolation, labeled probe preparation and DNA microchip hybridization protocol were performed as described above.

[2] = test system: minimal promoter linked to multiple copies of CRE; experiment: CRE-Luc reporter co-transfection assay with the CREAP gene family; format: cell-based; conditions: cotransfection, relative to empty pCMV-SPORT6 vector
From the text: The entire amino acid sequence for CREAP1 was used in a BLASTP search of a public NCBI database. Initially two public domain cDNAs (XM—117201 and FLJ00364) were identified that have significant homology to the CREAP1 coding region. The nucleotide sequence of XM—117201 was used in a BLASTN search (Altschul S. F. et al., Nucleic Acids Res. 25:3389-3402 (1997)) of a proprietary cDNA library EST database and 4 clones were identified that represent XM—117201 public sequence. All 4 clones were functionally tested upon co-transfection with the CRE-Luc and IL-8p-Luc reporters initially found to be induced by CREAP using methods similar to those disclosed above. Briefly, trypsinized HeLa cells are resuspended in complete growth media at 6×10^4 cells/ml and distributed into white 96-well plates (Costar) in the volume of 100 μl per well. Cells are left overnight in a tissue culture incubator at 37° C. and 5% CO2. pGL3B-IL-8p-Luc reporter plasmid or CRE-Luc reporter (BD Biosciences) as well as tested cDNAs are resuspended in OptiMEM I low serum media (GIBCO BRL) at 25 ng/ml. The reporter plasmids and cDNAs are then distributed into 96-well clean PCR plates (ABGene) at 4 μl/well and 3 μl/well respectively. Mixture containing Fugene 6 reagent (Roche Applied Bioscience) at 1.5 μl per transfection and pRL-SV40 (Promega) plasmid 20 ng per transfection is added in the volume of 10 μl per well of the 96-well PCR plate containing prediluted cDNAs. […]
The activity of firefly and Renilla luciferase is measured using the DualGlo Luciferase Assay System (Promega) following the protocol supplied by the manufacturer. Briefly, 115 μl of freshly reconstituted luciferase reagent is added to each well of the 96-well tissue culture plates with a Multidrop 384 and, after 15 minutes incubation, luminescence is read on a LUMINOSKAN Ascent Luminometer (Thermo Labsystems) with a 400 msec integration time. Subsequently, 115 μl of Stop-and-Glo reagent is added to each well of the 96-well tissue culture and, after 15 minutes incubation, luminescence is read on a LUMINOSKAN Ascent Luminometer with a 200 msec integration time. The activity of each tested cDNA is measured as a ratio of the corresponding firefly and Renilla luciferase activities.
To investigate this, the ability of CREAP2 and CREAP3 to activate gene expression driven by the IL-8 promoter and a CRE-dependent promoter was tested in co-transfection assays as disclosed above. Briefly, the levels of expression of a luciferase reporter driven by either the IL-8 promoter or a minimal promoter linked to 4 copies of CRE were determined after cotransfection with either an empty pCMV-SPORT6 expression vector or with the same vector carrying a cDNA for CREAP1, CREAP2 or CREAP3. […]

B1: CREAP1: human CRE activating protein 1, 650 amino acids, SEQ ID NO 2; expressed from pCMVSPORT-CREAP1 (protein)
chain: MATSNNPRKFSEKIALHNQKQAEETAAFEEVMKDLSLTRAARLQLQKSQYLQLGPSRGQYYGGSLPNVNQIGSGTMDLPFQPSGFLGEALAAAPVSLTPFQSSGLDTSRTTRHHGLVDRVYRERGRLGSPHRRPLSVDKHGRQADSCPYGTMYLSPPADTSWRRTNSDSALHQSTMTPTQPESFSSGSQDVHQKRVLLLTVPGMEETTSEADKNLSKQAWDTKKTGSRPKSCEVPGINIFPSADQENTTALIPATHNTGGSLPDLTNIHFPSPLPTPLDPEEPTFPALSSSSSTGNLAANLTHLGIGGAGQGMSTPGSSPQHRPAGVSPLSLSTEARRQQASPTLSPLSPITQAVAMDALSLEQQLPYAFFTQAGSQQPPPQPQPPPPPPPASQQPPPPPPPQAPVRLPPGGPLLPSASLTRGPQPPPLAVTVPSSLPQSPPENPGQPSMGIDIASAPALQQYRTSAGSPANQSPTSPVSNQGFSPGSSPQHTSTLGSVFGDAYYEQQMAARQANALSHQLEQFNMMENAISSSSLYSPGSTLNYSQAAMMGLTGSHGSLPDSQQLGYASHSGIPNIILTVTGESPPSLSKELTSSLAGVGDVSFDSDSQFPLDELKIDPLTLDGLHMLNDPDMVLADPATEDTFRMDRL
modifications: human
Question: Which “Fold Activation” value ([1]; CAPL protein mRNA (38088_r_at)) does the source give for B1 here?
Answer: 19

Question: And the “Fold Activation” value ([1]; DKFZp566K192 mRNA (32242_at))?
Answer: 32

Question: And the “Fold Activation” value ([1]; Exodus-1 mRNA (40385_at))?
Answer: 15

Question: And the “Fold Activation” value ([1]; IL-8 mRNA (1369_s_at))?
Answer: 2.5

Question: And the “Fold Activation” value ([1]; KIAA0467 mRNA (41458_at))?
Answer: 12

Question: And the “Fold Activation” value ([1]; PEPCK mRNA (33702_f_at))?
Answer: 32

Question: What about the “Fold Activation” value ([1]; TSHa mRNA (39352_at)) of the same molecule?
Answer: 57

Question: And the “Fold Activation” value ([1]; amphiregulin mRNA (34898_at))?
Answer: 19

Question: And the “CRE: level of expression of luciferase relative to empty vector” value [2]?
Answer: 28.6
